According to publication PMC3855536:

Substrate: C=C(O[C@@H]1C=C(C(=O)O)C=C[C@H]1O)C(=O)O
Test: steady-state kinetics
Type: biochemical, Thermus thermophilus
Conditions: dehydration of chorismate to 12

B1: MqnA (TTHA0803) (Thermus thermophilus HB8) (protein)
chain: MRPYVLGLPRYANVAPLHHFLRLEGFRVLHAVPAELNRLLLSGEVGLSLVSSYFYLKHQDSLGLLPDFSVAVLGRVYSVNLFHKGALPHLARVALTTESATSVALLKLLLKEAGAGPRYERREGGLELLSAYDGVLLIGDRAIKAYAALLPEVPETPHALPTRFGEVEVADLSTLWFQRTHLPFVFAVWAYRRENPPPKALVQALREARREGLGRLREVAEAEARRLGVHPLLLQHYLWNFRYHLEEPDRLGLKAFAEALGLPFAPMFYPE
Km: 161.6 ± 7.1 µM
kcat: 1.27 ± .02 s⁻¹
